One data set has as its target T1, Lin28-CSD (Homo sapiens, UniProt Q9H9Z2 32-136).
T1 sequence: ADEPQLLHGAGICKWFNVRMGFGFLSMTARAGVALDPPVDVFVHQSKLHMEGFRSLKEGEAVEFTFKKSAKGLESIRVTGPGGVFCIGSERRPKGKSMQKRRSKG
As to the kind of experiment: NMR (1H-15N HSQC); 298 K; EMSA: 20 mM Tris pH 7.6, 40 mM NaCl, 0.5 mM DTT, room temperature, 30 min; NMR: 50 mM potassium phosphate pH 7.0, 50 uM 15N-protein, 298 K (C10) or 303 K (C20). The conditions noted are these: protein: recombinant; tags: His6.

A further data set deals with YB-1-CSD (Homo sapiens, UniProt P67809 1-180). As to the kind of experiment: NMR (1H-15N HSQC); 298 K; spectra stated as already published (ref 7); EMSA: 20 mM Tris pH 7.6, 40 mM NaCl, 0.5 mM DTT, room temperature, 30 min; NMR: 50 mM potassium phosphate pH 7.0, 50 uM 15N-protein, 298 K (C10) or 303 K (C20). The conditions noted are these: protein: recombinant. For orientation: In EMSA bound probe runs differently from free probe, usually more slowly.
Chain of YB-1-CSD (P67809 1-180): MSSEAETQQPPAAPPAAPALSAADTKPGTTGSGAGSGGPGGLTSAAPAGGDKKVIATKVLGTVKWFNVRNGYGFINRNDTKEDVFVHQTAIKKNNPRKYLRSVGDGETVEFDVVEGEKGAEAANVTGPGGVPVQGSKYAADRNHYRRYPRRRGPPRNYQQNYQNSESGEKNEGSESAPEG

The values that follow come from PMC7979924, “Lin28, a major translation reprogramming factor, gains access to YB-1-packaged mRNA through its cold-shock domain”.

B1: poly(C) DNA C10 (ssDNA)
DNA: CCCCCCCCCC
B1: the binding result with Lin28-CSD and with YB-1-CSD was “binds” in each case.
